Key:
Experiment in all cases: cell-based or functional assay
[1] = biological target: HIV-1 Env of strain 1012_11_TC21_3257 (HIV-1)
[2] = biological target: HIV-1 Env of strain 191821_E6_1 (HIV-1)
[3] = biological target: HIV-1 Env of strain 249M B10 (HIV-1)
[4] = biological target: HIV-1 Env of strain 9004SS_A3_4 (HIV-1)
[5] = biological target: HIV-1 Env of strain BF1266.431a (HIV-1)
[6] = biological target: HIV-1 Env of strain BJOX009000.02.4 (HIV-1)
[7] = biological target: HIV-1 Env of strain BJOX015000.11.5 (HIV-1)
[8] = biological target: HIV-1 Env of strain BJOX025000.01.1 (HIV-1)
[9] = biological target: HIV-1 Env of strain C4118.c09 (HIV-1)
[10] = biological target: HIV-1 Env of strain CNE19 (HIV-1)
[11] = biological target: HIV-1 Env of strain CNE5 (HIV-1)
[12] = biological target: HIV-1 Env of strain HIV-001428-2.42 (HIV-1)
[13] = biological target: Env of HIV-1 strain 1056_10_TA11_1826 (HIV-1)
[14] = biological target: Env of HIV-1 strain 191084 B7-19 (HIV-1)
[15] = biological target: Env of HIV-1 strain 191821_E6_1 (HIV-1)
[16] = biological target: Env of HIV-1 strain 235-47 (HIV-1)
[17] = biological target: Env of HIV-1 strain 3365.v2.c2 (HIV-1)
[18] = biological target: Env of HIV-1 strain 6540.v4.c1 (HIV-1)
[19] = biological target: Env of HIV-1 strain 6545.v4.c1 (HIV-1)
[20] = biological target: Env of HIV-1 strain 6811.v7.c18 (HIV-1)
[21] = biological target: Env of HIV-1 strain 7030102001E5(Rev-) (HIV-1)
[22] = biological target: Env of HIV-1 strain 89-F1_2_25 (HIV-1)
[23] = biological target: Env of HIV-1 strain 9004SS_A3_4 (HIV-1)
[24] = biological target: Env of HIV-1 strain A07412M1.vrc12 (HIV-1)
[25] = biological target: Env of HIV-1 strain AC10.0.29 (HIV-1)
[26] = biological target: Env of HIV-1 strain BF1266.431a (HIV-1)
[27] = biological target: Env of HIV-1 strain BJOX028000.10.3 (HIV-1)
[28] = biological target: Env of HIV-1 strain C2101.c01 (HIV-1)
[29] = biological target: Env of HIV-1 strain CAP45.2.00.G3 (HIV-1)
[30] = biological target: Env of HIV-1 strain CNE5 (HIV-1)
[31] = biological target: Env of HIV-1 strain CNE8 (HIV-1)
[32] = biological target: Env of HIV-1 strain Ce1086_B2 (HIV-1)
[33] = biological target: Env of HIV-1 strain Ce1172_H1 (HIV-1)
[34] = biological target: Env of HIV-1 strain Ce703010054_2A2 (HIV-1)
[35] = biological target: Env of HIV-1 strain HIV-0013095-2.11 (HIV-1)
[36] = biological target: Env of HIV-1 strain HIV-001428-2.42 (HIV-1)
[37] = biological target: Env of HIV-1 strain HIV-16845-2.22 (HIV-1)
[38] = biological target: Env of HIV-1 strain MS208.A1 (HIV-1)
[39] = biological target: Env of HIV-1 strain Q769.d22 (HIV-1)
[40] = biological target: Env of HIV-1 strain R1166.c01 (HIV-1)
[41] = biological target: Env of HIV-1 strain RHPA4259.7 (HIV-1)
[42] = biological target: Env of HIV-1 strain SC05_8C11_2344 (HIV-1)
[43] = biological target: Env of HIV-1 strain THRO4156.18 (HIV-1)
[44] = biological target: Env of HIV-1 strain TRO.11 (HIV-1)
[45] = biological target: Env of HIV-1 strain WEAU_d15_410_787 (HIV-1)
[46] = biological target: Env of HIV-1 strain WITO4160.33 (HIV-1)
[47] = biological target: Env of HIV-1 strain X1254_c3 (HIV-1)
[48] = biological target: Env of HIV-1 strain X2088_c9 (HIV-1)
[49] = biological target: Env of HIV-1 strain ZM214M.PL15 (HIV-1)
[50] = biological target: Env of HIV-1 strain ZM249M.PL1 (HIV-1)

B1: NIH45-46^G54W(HC), S28Y(LC) (antibody, V domains shown)
VH: QVRLSQSGGQMKKPGESMRLSCRASGYEFLNCPINWIRLAPGRRPEWMGWLKPRWGAVNYARKFQGRVTMTRDVYSDTAFLELRSLTSDDTAVYFCTRGKYCTARDYYNWDFEHWGRGAPVTVSS
VL: EIVLTQSPATLSLSPGETAIISCRTSQYGSLAWYQQRPGQAPRLVIYSGSTRAAGIPDRFSGSRWGADYNLSISNLESGDFGVYYCQQYEFFGQGTKVQVDI
IC50, pseudovirus neutralization [1]: 0.001 µg/mL
IC50, pseudovirus neutralization [2]: 0.05 µg/mL
IC50, pseudovirus neutralization [3]: 0.001 µg/mL
IC50, pseudovirus neutralization [4]: 0.046 µg/mL
IC50, pseudovirus neutralization [5]: 0.002 µg/mL
IC50, pseudovirus neutralization [6]: 0.14 µg/mL
IC50, pseudovirus neutralization [7]: 0.039 µg/mL
IC50, pseudovirus neutralization [8]: 0.031 µg/mL
IC50, pseudovirus neutralization [9]: 0.011 µg/mL
IC50, pseudovirus neutralization [10]: 0.022 µg/mL
IC50, pseudovirus neutralization [11]: 0.032 µg/mL
IC50, pseudovirus neutralization [12]: 0.001 µg/mL

B2: NIH45-46^G54W (antibody, V domains shown)
VH: QVRLSQSGGQMKKPGESMRLSCRASGYEFLNCPINWIRLAPGRRPEWMGWLKPRWGAVNYARKFQGRVTMTRDVYSDTAFLELRSLTSDDTAVYFCTRGKYCTARDYYNWDFEHWGRGAPVTVSS
VL: EIVLTQSPATLSLSPGETAIISCRTSQSGSLAWYQQRPGQAPRLVIYSGSTRAAGIPDRFSGSRWGADYNLSISNLESGDFGVYYCQQYEFFGQGTKVQVDI
IC80 [13]: 0.16 µg/mL
IC80 [14]: 0.026 µg/mL
IC80 [15]: 0.099 µg/mL
IC80 [16]: 0.017 µg/mL
IC80 [17]: 0.056 µg/mL
IC80 [18]: > 50 µg/mL
IC80 [19]: > 50 µg/mL
IC80 [20]: 0.033 µg/mL
IC80 [21]: 0.228 µg/mL
IC80 [22]: > 50 µg/mL
IC80 [23]: 0.28 µg/mL
IC80 [24]: 0.042 µg/mL
IC80 [25]: 0.63 µg/mL
IC80 [26]: 0.001 µg/mL
IC80 [27]: 0.002 µg/mL
IC80 [28]: 0.17 µg/mL
IC80 [29]: > 50 µg/mL
IC80 [30]: 0.116 µg/mL
IC80 [31]: 0.24 µg/mL
IC80 [32]: 0.091 µg/mL
IC80 [33]: > 50 µg/mL
IC80 [34]: 0.077 µg/mL
IC80 [35]: 0.027 µg/mL
IC80 [36]: 0.001 µg/mL
IC80 [37]: 2.1 µg/mL
IC80 [38]: 0.17 µg/mL
IC80 [39]: 0.009 µg/mL
IC80 [40]: 0.51 µg/mL
IC80 [41]: 0.007 µg/mL
IC80 [42]: 0.2 µg/mL
IC80 [43]: 1.81 µg/mL
IC80 [44]: 0.13 µg/mL
IC80 [45]: 0.003 µg/mL
IC80 [46]: 0.04 µg/mL
IC80 [47]: 0.018 µg/mL
IC80 [48]: > 50 µg/mL
IC80 [49]: 0.15 µg/mL
IC80 [50]: 0.007 µg/mL
IC50, pseudovirus neutralization [1]: 0.001 µg/mL
IC50, pseudovirus neutralization [2]: 0.013 µg/mL
IC50, pseudovirus neutralization [3]: 0.001 µg/mL
IC50, pseudovirus neutralization [4]: 0.054 µg/mL
IC50, pseudovirus neutralization [5]: 0.001 µg/mL
IC50, pseudovirus neutralization [6]: 0.132 µg/mL
IC50, pseudovirus neutralization [7]: 0.048 µg/mL
IC50, pseudovirus neutralization [8]: 0.014 µg/mL
IC50, pseudovirus neutralization [9]: 0.01 µg/mL
IC50, pseudovirus neutralization [10]: 0.002 µg/mL
IC50, pseudovirus neutralization [11]: 0.009 µg/mL
IC50, pseudovirus neutralization [12]: 0.001 µg/mL

B3: NIH45-46^G54W(HC) S28Y(LC) (antibody, V domains shown)
VH: QVRLSQSGGQMKKPGESMRLSCRASGYEFLNCPINWIRLAPGRRPEWMGWLKPRWGAVNYARKFQGRVTMTRDVYSDTAFLELRSLTSDDTAVYFCTRGKYCTARDYYNWDFEHWGRGAPVTVSS
VL: EIVLTQSPATLSLSPGETAIISCRTSQYGSLAWYQQRPGQAPRLVIYSGSTRAAGIPDRFSGSRWGADYNLSISNLESGDFGVYYCQQYEFFGQGTKVQVDI
IC80 [13]: 0.289 µg/mL
IC80 [14]: 0.016 µg/mL
IC80 [15]: 0.13 µg/mL
IC80 [16]: 0.019 µg/mL
IC80 [17]: 0.049 µg/mL
IC80 [18]: > 50 µg/mL
IC80 [19]: > 50 µg/mL
IC80 [20]: 0.11 µg/mL
IC80 [21]: 0.229 µg/mL
IC80 [22]: > 50 µg/mL
IC80 [23]: 0.138 µg/mL
IC80 [24]: 0.064 µg/mL
IC80 [25]: 0.554 µg/mL
IC80 [26]: 0.013 µg/mL
IC80 [27]: 0.006 µg/mL
IC80 [28]: 0.169 µg/mL
IC80 [29]: 0.089 µg/mL
IC80 [30]: 0.137 µg/mL
IC80 [31]: 0.156 µg/mL
IC80 [32]: 0.042 µg/mL
IC80 [33]: > 50 µg/mL
IC80 [34]: 0.051 µg/mL
IC80 [35]: 0.017 µg/mL
IC80 [36]: 0.002 µg/mL
IC80 [37]: 1.44 µg/mL
IC80 [38]: 0.089 µg/mL
IC80 [39]: 0.017 µg/mL
IC80 [40]: 1.01 µg/mL
IC80 [41]: 0.007 µg/mL
IC80 [42]: 0.219 µg/mL
IC80 [43]: 2.74 µg/mL
IC80 [44]: 0.079 µg/mL
IC80 [45]: 0.027 µg/mL
IC80 [46]: 0.073 µg/mL
IC80 [47]: 0.03 µg/mL
IC80 [48]: > 50 µg/mL
IC80 [49]: 0.258 µg/mL
IC80 [50]: 0.017 µg/mL
